Experiment: label from the status in PepcDB records

Sequence | protein production
MIFEIIKIGSQPINFAYPIPLLSLLAFMLSGSGYNELIISYIFAFSFFTAANLWNHLNDAEDDLNAGRNYARFLIEHRKIVTEFVVAFYFVSFLLIFFISKSKEIALLLTGLSVVLTWLYSDKIFIGKIIRRFKEDYKTEVFTYILCSFSFPLSFWTIFSEISQVGVVFTLATGFTYLSGFFLKDLKDISADIKSGYRTLAVVLSPSTLLIISVMLFIASTFVVIFSSLLDVTPTSSLLVLTVYPPILFAIYKFHKEKWKITKNIISSLKIYTYSYLGFLIAFAIGCKL | failed
MPTIFQIPTFIQILEFIGTFAFAISGIRLASAKQFDWFGAYVAGVAVAIGGGTIRDVLLDVTPFWMTNPIYLICSALALLWVIFFRKHLIHMHNTFFIFDSIGLALFTVVGISKTIDLGYAFWVAIIMGTMTGAAGGVIRDVFINEIPLIFRKEIYAMACVIGGVIYWGLDRFGVDAALTQVISGCCIFVVRALAVKYQICLPILKGE | failed
MSLTTYDTQPSTLIRNAAAIMTGGRGTADDPSRVPGPDIRIVGDTIDAIGALAPRPGETIVDATDCVIYPAWVNTHHHLFQSLLKGEPAGLDATLTPWLAATPYRFRALFDERRFRLAARIGLIELARSGCATVADHNYVYYPGMPFDSSAILFEEAEKLGLRFVLLRGGATQTRQLEADLPTALRPETLDAYVADIERLAARYHDASPRAMRRVVMAPTTVLYSISPREMRETAAVARRLGLRMHSHLSETVGYQDSAYSMYGKSPVAFCGEHDWLGSDVWYAHLVKVDADEIALLAQTGTGVAHCPQSNGRLGSGICPVREMADAGVPVSIGVDGAASNEAADMISEVHMTWLAQRARLGMLAQPAYRGGSFEGGAGAASIAEVIHWGTAGGARVMGLDEVGKVAVGYAADIAVYRLDDPRYFGLHDPAIGPVASGGRPSVMALFSAGKRVVVDDLIEGVDIKELGGEARRVVRELLREVVVEGHHHHHH | not failed
SFSAPIEDLQVRIAFLDELVEQLNTQLALQTQEIADLKKQMQLLYQRVEASDLSEGIAPFDPNTNKPPHY | failed
MRFSSIFKIIILNIFISKMAHAAVCEERYPADSEECQYVQELEQKAEQGDESAQFALGSWYAEGRYVKPDYKLAIKWLEKAGKQGSDFSYFILGYHYNYGENFPLSRQKALEWYRKAAELGDSSTQEILGDAYMYGDGFPQNTQLALEWYRKAASPTNDAGVVRGQGSASSAQFKLGVMYAHGQGVPQDYQQTAILMRKAAENMYYPAQLYLGVAYFYGEGVPQDYRQAVYWLNEGIPGSYTPGHIPLSALYDKAHPADRVHSQTWYRKTAQRVMAKVQYNFGVWYYNGYHLLKDHNLALEWYRRAAAQGLAEAQDAIGVMFMQGEGVSQDYQQALAWYRKAARQGLPAAQTHLGIMSAFGRDVAQSDRQAIAWYRKAAKQDFAKAQYQLGVAYSTGRGVPENSRNALKWYLKAAEQGFTPAQSALGEIYAHGRQGVPKDNKQAYIWYYMASMYTEKSKDDCSALIAERNRLKGTLTPDQLSETYAAFNLIWRKIDQSKEAKKIARKKY | failed
MLPWNFEGEASEPAQDPTMAPHKRQSYEEELANAITHGVGLVLSLIGWVGLLVLSGLAGGGWDLAASAVFGGTLVFLYATSTLYHSVGTARLKRTLRILDHVAIFLLIAGTYTPFAGVLMREGWGWSVLALVWGIALAGLLFKLFSTHRFHPAATTLYLLMGWLGVLFADPMSAALPLGGLLLIVAGGLAYTIGVLFYGWHSLRYSHAIWHVFVLVGSACHYAAVVLYVL | failed
MQKQLLLGVEAIAQAALDAGISGVYAYPGTPSTEITEHIQNSRMAKERNVHREWAANEKTAMESALGMSYAGKRALVCMKHVGMNVAADCFMNAAITGANGGMVIVAADDPSMHSSQNEQDSRVYGQFAMIPVMEPSNQQEAYDMTRLAFDLSERLGTPVMMRITTRLAHSRAGVVQTEPIGENELHLPEDKRQYVLLPGIAKKRYRILLDKQTDFVRESENSPYTEYVDAADKSKGIVACGIAYNYLMEAFKAQVPYPVLKVTQYPIPHKQMERLLNECGDIVVMEEGYPVVEQLLKGFPGLERIKGRLDGTLPRDGELNPDHVAKAFNIPVVEGEPIPDLVAARPPALCKGCSHRDVYDALNEVLTEYPNGRVFSDIGCYTLGALPPYEAINSCVDMGASITMAKGAADAGLFPAVSVIGDSTFTHSGITGLLDAINENSNITVIISDNESISMTGGQHSSAYGKVEAICRGIGVDPDHIRELLPVPKNHDELCSIIREEINYEGVSVIIPRRVCIQKHARDAKAAKRAKAKE | not failed
MATSMTDIKGFNMISIEQEKELGNKFAVEIEKQQQPVNDPEVQRYVDKVGKRLLSGARAVEFDYVFKVVKDDSVNAFAIPGGRVYVHTGLLKAADNETELAGVLAHEINHAVARHGTRQMTQEYGYSLVLSLVLGDNPNMLAQLAGQLFGKAGMMSYSREYENQADFLGVETMYKAGYNPNGLTSFFQKLNAMDGGTQSNVARFFSTHPLTSERIQRVQAEIAKLPPQRYLTDETEFKKIKGRLKLEHHHHHH | not failed
MFGYRSNVPKVRLTTDRLVVRLVHDRDAWRLADYYAENRHFLKPWEPVRDESHCYPSGWQARLGMINEFHKQGSAFYFGLFDPDEKEIIGVANFSNVVRGSFHACYLGYSIGQKWQGKGLMFEALSAAIRYMQRTQHIHRIMANYMPHNKRSGDLLARLGFEKEGYAKDYLLIDGQWRDHVLTALTTPDWTPGR | failed
MDTSTNLDIGAQLIVEECPSTYSLTGMPDIKIEHPLDPNSEEGSAQGVAMGMKFILPNRFDMNVCSRFVKSLNEEDSKNIQDQVNSDLEVASVLFKAECNIHTSPSPGIQVRHVYTPSTTKHFSPIKQSTTLTNKHRGNEVSTTPLLANSLSVHQLAAQGEMLYLATRIEQENVINHTDEEGFTPLMWAAAHGQIAVVEFLLQNGADPQLLGKGRESALSLACSKGYTDIVKMLLDCGVDVNEYDWNGGTPLLYAVHGNHVKCVKMLLESGADPTIETDSGYNSMDLAVALGYRSVQQVIESHLLKLLQNIKE | failed
MSARLDAQIAFLKQADRLKSVERANVLLDLSRPENSAEHSWHLALWALVLSPFAAPDVDVDRAIRMLLLHDLVEIETGDHPIHEVTDWQAVERAERAAARKLFGLLPPDQAADFHTLWTEFDADETADARYAKMLDRCQPMFQVLCADTPRPDHVEVVRENLSSGRAAYLAEAFPEAHAHARALLERHPPVTGGFGDRLEFLAEADRLKTVLRASRLMDDSRFENSAEHSWHIMLYAWVLGEYAAAPVDIDRVLRMLLLHDLVEIDAGDNPIHGNVDHAAQEALEAAAAERLFGLLPPDQGAGLRAIWQEFETAQSADALFGKAVDRVQTPIANLENGGGSWVTYDVSLQQLVARVGTPVSRGAPGLWDWLFPQLSDCFTRLGLRLLEHHHHHH | not failed
MTAKAACSDFLHFFRSWVSNPLRVAAIAPSGDSLARIMTSEIAALDGPIIELGPGTGVFTRALLARGVSEADLTLIEYGPEFITSLQARFPTARVLQMDAAHLAHADIFEGEPVGAVVSGLPLLSMSPRKIASILAGAFAYMRPGGAVYQFTYGPRCPVPRPILDRLGLKAVRIGGTVRNLPPASVYRISRRKPLELSRERFSYRSSAADVDDVAAFSNETGG | failed
MDEEIDTRKINNSFLRDHNYATEADIISTVEFNPTGELLATGDKGGRVVVFQREQESKNQPHRRGEYNVYSTLLKDWIMLIKTHRKNFRRKGKQLGFKCGSIY | failed
MRIKNKCLVLLIPLGISIMFDIRVKAFQPVSHYVVIEQAESKMSNDSIIRKAIEAYPNVAAWGSVGPDLGYMQVGELGDYSPWGDRYHYYKVGTYAAKQLKNALETRDMKKIAFAAGWISHVTGDLACHGIYVNPECGVYLDNKDGRKQHKHMEAEAEPYAWVNIAGHSINDYNSNNMSNNVFKGTDDIPFDLMNETSKEVYGQSPSTAEEKLWASTLLTGLRTGVGYSYTDYNESKQFLSINSREQRLNASFSQGINQCYKLLTYSENGDYSKFTDRWNLDVGKSSSPISSLTTIISTGTNLGSGTDDDIYFGIHLNNGQKKEWLLDKETYNDFENGATDEYYLYINDMDFLPTMVDKVWVRKNSTGSFAGNWFFKALRIDANGNDVLSVSPNEWITDSNSQAEFNSDWSSVTNLTDPEF | failed
MTTFLQRDDFAVTARVLGALFYYSPESHETAPLVQALLNDDWQAQWPLDAEALAPVAAMFKTHSEESLPQAWQRLFIGPYALPSPPWGSVWLDRESVLFGDSTLALRQWMRENGIQFEMQQNEPEDHFGSLLLLAAWLAENDRHHECEQLLAWHLFPWSSRFLDVFIDHAGHPFYQALGQLARLTLAQWQAQLIIPVAVKPLFR | not failed

Source: a protein production outcome set (Wang et al. 2014)
